Legend:
[1] = substrate: N#Cc1ccc(-c2cn([C@H]3C[C@H](O)[C@@H](COP(=O)(O)O)O3)c(=O)[nH]c2=O)cc1; settings: Lacticaseibacillus casei
Description: (§1) Inhibitory effect against Lactobacillus casei thymidylate synthase

[2] = substrate: O=c1[nH]c(=O)n([C@H]2C[C@H](O)[C@@H](COP(=O)(O)O)O2)cc1-c1ccc(O)cc1; settings: Lacticaseibacillus casei
Description: as §1

[3] = substrate: COC(=O)c1ccc(-c2cn([C@H]3C[C@H](O)[C@@H](COP(=O)(O)O)O3)c(=O)[nH]c2=O)cc1; settings: Lacticaseibacillus casei
Description: as §1

[4] = substrate: NC(=O)c1ccc(-c2cn([C@H]3C[C@H](O)[C@@H](COP(=O)(O)O)O3)c(=O)[nH]c2=O)cc1; settings: Lacticaseibacillus casei
Description: as §1

[5] = substrate: N#Cc1ccc(-c2cn([C@H]3C[C@H](O)[C@@H](COP(=O)(O)O)O3)c(=O)[nH]c2=O)cc1; settings: Homo sapiens
Description: (§2) Inhibitory effect on human lymphoblast (Molt/4F) thymidylate synthase

[6] = substrate: O=c1[nH]c(=O)n([C@H]2C[C@H](O)[C@@H](COP(=O)(O)O)O2)cc1-c1ccc(O)cc1; settings: Homo sapiens
Description: as §2

[7] = substrate: COC(=O)c1ccc(-c2cn([C@H]3C[C@H](O)[C@@H](COP(=O)(O)O)O3)c(=O)[nH]c2=O)cc1; settings: Homo sapiens
Description: as §2

[8] = substrate: NC(=O)c1ccc(-c2cn([C@H]3C[C@H](O)[C@@H](COP(=O)(O)O)O3)c(=O)[nH]c2=O)cc1; settings: Homo sapiens
Description: as §2

[9] = substrate: N#Cc1ccc(-c2cn([C@H]3C[C@H](O)[C@@H](COP(=O)(O)O)O3)c(=O)[nH]c2=O)cc1; settings: Mus musculus
Description: (§3) Inhibitory effect on murine leukemia (L1210) thymidylate synthase

[10] = substrate: O=c1[nH]c(=O)n([C@H]2C[C@H](O)[C@@H](COP(=O)(O)O)O2)cc1-c1ccc(O)cc1; settings: Mus musculus
Description: as §3

[11] = substrate: COC(=O)c1ccc(-c2cn([C@H]3C[C@H](O)[C@@H](COP(=O)(O)O)O3)c(=O)[nH]c2=O)cc1; settings: Mus musculus
Description: as §3

[12] = substrate: NC(=O)c1ccc(-c2cn([C@H]3C[C@H](O)[C@@H](COP(=O)(O)O)O3)c(=O)[nH]c2=O)cc1; settings: Mus musculus
Description: as §3

B1: Thymidylate synthase (Lactobacillus casei), P00469 (protein)
chain: MLEQPYLDLAKKVLDEGHFKPDRTHTGTYSIFGHQMRFDLSKGFPLLTTKKVPFGLIKSELLWFLHGDTNIRFLLQHRNHIWDEWAFEKWVKSDEYHGPDMTDFGHRSQKDPEFAAVYHEEMAKFDDRVLHDDAFAAKYGDLGLVYGSQWRAWHTSKGDTIDQLGDVIEQIKTHPYSRRLIVSAWNPEDVPTMALPPCHTLYQFYVNDGKLSLQLYQRSADIFLGVPFNIASYALLTHLVAHECGLEVGEFIHTFGDAHLYVNHLDQIKEQLSRTPRPAPTLQLNPDKHDIFDFDMKDIKLLNYDPYPAIKAPVAV
[1]
  Km: 4.37 µM
[2]
  Km: 4.8 µM
[3]
  Km: 4.19 µM
[4]
  Km: 4.01 µM

B2: Thymidylate synthase (Homo sapiens), P04818 (protein)
chain: MPVAGSELPRRPLPPAAQERDAEPRPPHGELQYLGQIQHILRCGVRKDDRTGTGTLSVFGMQARYSLRDEFPLLTTKRVFWKGVLEELLWFIKGSTNAKELSSKGVKIWDANGSRDFLDSLGFSTREEGDLGPVYGFQWRHFGAEYRDMESDYSGQGVDQLQRVIDTIKTNPDDRRIIMCAWNPRDLPLMALPPCHALCQFYVVNSELSCQLYQRSGDMGLGVPFNIASYALLTYMIAHITGLKPGDFIHTLGDAHIYLNHIEPLKIQLQREPRPFPKLRILRKVEKIDDFKAEDFQIEGYNPHPTIKMEMAV
[5]
  Km: 1.51 µM
[6]
  Km: 1.54 µM
[7]
  Km: 1.38 µM
[8]
  Km: 1.48 µM

B3: Thymidylate synthase (Mus musculus), P07607 (protein)
chain: MLVVGSELQSDAQQLSAEAPRHGELQYLRQVEHILRCGFKKEDRTGTGTLSVFGMQARYSLRDEFPLLTTKRVFWKGVLEELLWFIKGSTNAKELSSKGVRIWDANGSRDFLDSLGFSARQEGDLGPVYGFQWRHFGAEYKDMDSDYSGQGVDQLQKVIDTIKTNPDDRRIIMCAWNPKDLPLMALPPCHALCQFYVVNGELSCQLYQRSGDMGLGVPFNIASYALLTYMIAHITGLQPGDFVHTLGDAHIYLNHIEPLKIQLQREPRPFPKLKILRKVETIDDFKVEDFQIEGYNPHPTIKMEMAV
[9]
  Km: 1.27 µM
[10]
  Km: 1.28 µM
[11]
  Km: 1.28 µM
[12]
  Km: 1.28 µM

— ChEMBL document CHEMBL1124237, “Linear free energy relationship studies of enzyme active site binding: thymidylate synthase” (J Med Chem, 1988)
